Target: Clb3-Cdk1 (S. cerevisiae) (UniProt P24870)
Chain of UniProt P24870 (P24870 whole entry, chain 1 of 2): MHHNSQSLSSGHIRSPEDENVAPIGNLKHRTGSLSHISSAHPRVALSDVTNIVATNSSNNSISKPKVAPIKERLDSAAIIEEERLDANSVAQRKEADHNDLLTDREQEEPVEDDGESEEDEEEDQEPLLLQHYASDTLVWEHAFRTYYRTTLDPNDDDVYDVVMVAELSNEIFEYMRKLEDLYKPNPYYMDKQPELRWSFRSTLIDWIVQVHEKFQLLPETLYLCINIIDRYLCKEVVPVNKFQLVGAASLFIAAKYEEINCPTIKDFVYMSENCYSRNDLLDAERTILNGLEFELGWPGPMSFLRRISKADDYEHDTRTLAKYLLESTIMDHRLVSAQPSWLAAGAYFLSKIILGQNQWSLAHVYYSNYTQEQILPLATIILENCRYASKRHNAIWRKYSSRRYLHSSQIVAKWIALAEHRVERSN
Chain of UniProt P24870 (P00546 whole entry, chain 2 of 2, further chain): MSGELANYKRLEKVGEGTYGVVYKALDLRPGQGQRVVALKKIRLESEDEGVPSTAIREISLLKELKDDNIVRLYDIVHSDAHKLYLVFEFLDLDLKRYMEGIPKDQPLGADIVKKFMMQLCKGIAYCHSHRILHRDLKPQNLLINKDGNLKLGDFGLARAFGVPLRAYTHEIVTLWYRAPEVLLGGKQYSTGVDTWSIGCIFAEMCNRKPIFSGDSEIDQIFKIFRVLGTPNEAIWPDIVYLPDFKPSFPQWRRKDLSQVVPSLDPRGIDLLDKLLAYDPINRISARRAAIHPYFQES

Substance: Sic1(1–33 SPxA) model substrate with PPKGPNF (from UniProt P38634 1-33)
- increase of the phosphorylation rate of the model substrate by Clb3-Cdk1: 65 fold
